Source: patent US20260125478A1 (VIELA BIO, published 2026)

Tests used:
[1] = molecular target: T1, human FcγRIIA on primary human cells (neutrophils; sorted CD14+ monocytes), allotype not stated (human, UniProt P12318 34-317); experiment: flow cytometry, fluorescently labelled antibody on human neutrophils, without IVIG
T1 construct: whole, on cells; also called human FcγRIIA at the neutrophil surface; FcγRIIA-expressing neutrophils
T1 sequence (looked up): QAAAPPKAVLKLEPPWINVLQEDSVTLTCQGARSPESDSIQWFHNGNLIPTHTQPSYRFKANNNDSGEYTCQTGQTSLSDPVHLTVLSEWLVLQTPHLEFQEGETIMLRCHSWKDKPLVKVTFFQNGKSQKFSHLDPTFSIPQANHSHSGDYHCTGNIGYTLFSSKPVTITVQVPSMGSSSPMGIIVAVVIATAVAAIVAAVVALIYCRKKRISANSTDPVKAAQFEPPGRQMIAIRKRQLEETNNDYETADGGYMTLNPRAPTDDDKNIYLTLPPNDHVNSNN
Experimental: (§1) Human neutrophils were re-suspended in blocking buffer [phosphate-buffered saline (PBS) supplemented with 10% fetal bovine serum] and transferred to round-bottom 96-well culture plates (0.5×10^6 cells/well). […] After incubation, cells were washed with cold PBS and the mean fluorescence intensity (MFI) of cell-bound antibodies was assessed by flow cytometry using an LSRII (BD; Franklin Lakes, NJ). The EC₅₀ for binding was calculated using a non-linear fit equation in GraphPad Prism 6 software.

[2] = molecular target: T2, human FcγRIIA 131H on blood cells of 131H/H donors (human, UniProt P12318 34-317); experiment: cell-based or functional assay
T2 sequence (looked up): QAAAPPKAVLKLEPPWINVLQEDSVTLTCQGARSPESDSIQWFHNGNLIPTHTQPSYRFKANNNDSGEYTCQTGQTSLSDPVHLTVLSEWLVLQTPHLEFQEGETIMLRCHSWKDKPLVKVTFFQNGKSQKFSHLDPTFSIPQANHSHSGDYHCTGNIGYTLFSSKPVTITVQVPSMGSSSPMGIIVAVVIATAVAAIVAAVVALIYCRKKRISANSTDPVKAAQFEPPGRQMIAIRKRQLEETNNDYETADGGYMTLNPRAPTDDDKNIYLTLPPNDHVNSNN

[3] = molecular target: T1, human FcγRIIA on primary human cells …; experiment: flow cytometry, fluorescently labelled antibody on human neutrophils, in the presence of 10 mg/mL IVIG as competitor
Experimental: as §1

[4] = molecular target: T3, recombinant human FcγRIIIA-158F allotype (ELISA coat, generated at MedImmune) (human, UniProt P08637 17-208, limits assumed); experiment: ELISA on plate-coated FcγRIIIA-158F (2 µg/ml), detection with goat anti-human Fc-HRP
T3 construct: also called FcγRIII-158F allotype; CD16A 158F
T3 sequence (P08637 17-208 limits assumed): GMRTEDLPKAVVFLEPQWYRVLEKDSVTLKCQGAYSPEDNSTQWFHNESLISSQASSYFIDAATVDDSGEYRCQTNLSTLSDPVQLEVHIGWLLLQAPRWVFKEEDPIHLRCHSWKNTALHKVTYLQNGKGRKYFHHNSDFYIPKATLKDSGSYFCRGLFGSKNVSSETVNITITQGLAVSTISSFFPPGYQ
Experimental: (§2) Plates were washed five times with 200 μl of wash buffer (PBS containing 0.1% Tween 20), blocked with blocking buffer containing 5% milk in PBS for 1 hour at room temperature, and washed five additional times with wash buffer. Three-fold serial dilutions of the test antibody or control antibody (R347-Tm) were added to wells in duplicate. Plates were incubated for 2 hours at room temperature, and washed five times with wash buffer. Binding of the antibodies to the FcγRs was detected by adding 50 μl of goat anti-human Fc-HRP (Jackson ImmunoResearch Laboratories, PA) to the wells and incubating for 1 hour at room temperature, washing 10 times, and adding 50 μl TMB substrate (Pierce Biotechnology, MA). The color reaction was stopped with 50 μl 0.2M […] and the absorbance was measured using a spectrophotometer (Molecular Devices, CA) at […].

[5] = molecular target: T4, recombinant FcγRIIA-131H/H allotype (ELISA coat, generated at MedImmune) (human, UniProt P12318 34-217, limits assumed); experiment: ELISA on plate-coated FcγRIIA-131H/H (2 µg/ml), detection with goat anti-human Fc-HRP
T4 construct: also called human FcγRIIA; CD32A
T4 sequence (looked up): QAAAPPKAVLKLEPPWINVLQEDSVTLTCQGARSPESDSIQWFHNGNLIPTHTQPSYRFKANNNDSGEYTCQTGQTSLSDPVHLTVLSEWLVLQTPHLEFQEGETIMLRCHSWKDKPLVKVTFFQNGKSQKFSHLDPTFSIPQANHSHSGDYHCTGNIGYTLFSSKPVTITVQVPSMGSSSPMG
Experimental: as §2

[6] = molecular target: T1, human FcγRIIA on primary human cells …; experiment: flow cytometry, fluorescently labelled antibody on human neutrophils, 30 min at 4 °C, without IVIG
Experimental: as §1

[7] = molecular target: T5, recombinant FcγRIIB (ELISA coat, generated at MedImmune) (UniProt P31994 43-217, limits assumed); experiment: ELISA on plate-coated FcγRIIB (2 µg/ml), detection with goat anti-human Fc-HRP
T5 construct: also called CD32B
T5 sequence (looked up): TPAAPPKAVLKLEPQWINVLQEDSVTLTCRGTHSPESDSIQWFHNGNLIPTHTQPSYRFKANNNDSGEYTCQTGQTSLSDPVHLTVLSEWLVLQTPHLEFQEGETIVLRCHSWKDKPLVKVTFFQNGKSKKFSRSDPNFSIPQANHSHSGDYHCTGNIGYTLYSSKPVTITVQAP
Experimental: as §2

[8] = molecular target: T6, human FcγRIIA 131R on blood cells of 131R/R donors (human, UniProt P12318 34-317); experiment: cell-based or functional assay
T6 sequence: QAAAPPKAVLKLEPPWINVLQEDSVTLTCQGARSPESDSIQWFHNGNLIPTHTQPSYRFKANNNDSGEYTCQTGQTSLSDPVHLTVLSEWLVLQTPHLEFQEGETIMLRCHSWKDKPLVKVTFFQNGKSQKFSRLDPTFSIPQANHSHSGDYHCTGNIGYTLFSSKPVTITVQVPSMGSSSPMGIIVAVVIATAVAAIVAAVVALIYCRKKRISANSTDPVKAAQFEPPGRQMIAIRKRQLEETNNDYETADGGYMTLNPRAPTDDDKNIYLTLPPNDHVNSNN

[9] = molecular target: T7, cynomolgus CD32A version 3, 6xHis tagged (cynomolgus monkey); experiment: Biacore; IgG1-TM captured on a Protein G chip, CD32A as analyte, 1:1 Langmuir fit, average of two experiments
T7 construct: also called Cyno CD32A; cyno CD32A (version 3)
T7 chain: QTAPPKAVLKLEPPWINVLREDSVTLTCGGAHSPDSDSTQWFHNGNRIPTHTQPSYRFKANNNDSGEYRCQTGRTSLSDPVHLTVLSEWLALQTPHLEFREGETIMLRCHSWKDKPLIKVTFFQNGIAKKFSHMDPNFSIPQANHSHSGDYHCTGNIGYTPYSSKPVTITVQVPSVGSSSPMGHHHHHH

EC50 [1]: 0.03 nM
IC50 of the loss of surface FcγRIIA (M.F.I of IV.3-Alexa 647) on monocytes, whole blood, 2 h at 37 °C [2]: 0.0809 nM
EC50 [3]: 3.34 nM
binding result [4]: no binding (tested: about 15000 ng/ml)
EC50 (read off the curve) [5]: ~5 ng/mL
EC50 [6]: 0.0293 nM
binding result [7]: no binding (tested: about 15000 ng/ml)
IC50 of the loss of surface FcγRIIA (M.F.I of IV.3-Alexa 647) on monocytes, whole blood, 2 h at 37 °C [8]: 0.0593 nM
Kd [9]: 31.3 nM
koff [9]: 0.0904 s⁻¹
kon [9]: 2.88e+06 M⁻¹ s⁻¹
B1: 32LO0352 (MEDI9600) (antibody, human IgG1, V domains shown)
VH: QVQLVQSGAEVKKPGASVKVSCKASGYTFTNYGMNWVRQAPGQRLEWMGWLNTYTGESWYPDDFKGRVTITRDTSASTAYMELSSLRSEDTAVYYCARGDYGYDDPLDYWGQGTLVTVSS
VL: DIVMTQSPLSLPVTPGEPASISCRSSKSLLHTNQNTYLHWFLQKPGQSPQLLIYRMSVLASGVPDRFSGSGSGTDFTLKISRVEAEDVGVYYCMQHLEYPLTFGQGTKLEIK
notes: Fluorescently labelled in the neutrophil flow cytometry assay and Alexa 647 labelled for confocal microscopy; also called clone 32LO0352; CD32LO0352
